Target: DNA processing protein A (DprA) from Helicobacter pylori strain J99 (Helicobacter pylori strain J99) (UniProt B5ZAA1)
Assay: SPR; Biacore 3000; DprA immobilised on a CM5 chip (~500 RU), HP0935 passed over at varying concentrations; 50 mM Tris-Cl pH 7.4, 25 °C, 20 μl/min, 300 s dissociation; Langmuir binding fit

Substance “HP0935, N-acetyltransferase domain-containing protein (GNAT superfamily protein acetyltransferase) from Helicobacter pylori strain 26695 (from UniProt O25589 2-161) (enzyme)” has a Kd of 3.28 µM.

Source: publication PMC12273574, “Biochemical and structural characterization of a GNAT superfamily protein acetyltransferase from Helicobacter pylori” (The Journal of Biological Chemistry, 2025)
